The values that follow are results of earlier work, collected in patent US20130079279A1, “PHARMACEUTICAL COMPOSITION COMPRISING AVE0010 AND INSULIN GLARGINE” (SANOFI-AVENTIS DEUTSCHLAND GMBH, priority 2010, published 2013).

The test system of the data set is anti-lixisenatide antibodies. To be noted: previous study ACT6011; end of a two week period after repeated injections.

Consider “desPro^36Exendin-4(1-39)-Lys6-NH2 [lixisenatide]”, for which the Anti-lixisenatide antibodies entry is listed as “not detected”.
